Experimental data as given in patent EP4538294A1 (Shandong Simcere Biopharmaceutical Co., Ltd., dated 2025).
“And” between values parts separate entries of the source, which are not always exact repeats. Equal values may be shown once.

T1: human BCMA on Flp-inCHO-human BCMA cells (human, UniProt Q02223 1-184)
T1 construct: whole, on cells
T1 sequence (looked up): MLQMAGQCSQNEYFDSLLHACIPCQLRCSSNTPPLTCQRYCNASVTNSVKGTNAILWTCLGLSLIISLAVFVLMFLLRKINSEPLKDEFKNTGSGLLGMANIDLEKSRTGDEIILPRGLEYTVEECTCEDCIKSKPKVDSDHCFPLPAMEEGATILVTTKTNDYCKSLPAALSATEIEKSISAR

B1: Tri-59 (trispecific antibody, V domains shown)
VHH: EVQLVESGGGLVQPGGSLRLSCAASESISSIHIMAWYRQAPGKQRELVAGIRNDGSTVYVDSVKGRFTISRDNAKNSLYLQMNSLRAEDTAVYYCNADQGFGSYSEWERRSRWGQGTTVTVSS
VH 1: EVQLVQSGAEVKKPGSSVKVSCKASGYTFTSYGISWVRQAPGQGLEWMGEIYPRSGNTYYNEKFKGRVTLTADKSTSTAYMELSSLRSEDTAVYYCARGRAYGRNYPMDYWGQGTTVTVSS
VL 1: EIVLTQSPATLSLSPGERATLSCRASQSIGTSIHWYQQKPGQSPRLLIKYASESISGIPARFSGSGSGTDFTLTISSLEPEDFAVYYCQQSNSWPYTFGGGTKVEIK
VH 2: EVQLVESGGGVVQPGRSLRLSCAASGFTFTDYYMSWVRQAPGKGLEWVAMSRNKAKGHTIEYSSSVKGRFTISRDNSKNTLYLQMNSLRAEDTAVYYCARDTYESYDGYFDVWGQGTTVTVSS
VL 2: DIVMTQSPDSLAVSLGERATINCKSSQSLFNSRSRKNYLAWYQQKPGQTPKLLIYWASIRESGVPDRFSGSGSGTDFTLTISSLQAEDVAVYYCKQSYYLYTFGQGTKLEIK
B2: Tri-29 (trispecific antibody, V domains shown)
VHH: EVQLVESGGGLVQPGGSLRLSCSASGFTLDYYMIGWFRQAPGKEREGLSSISPADGSTYYADSVKGRFTISRDSSKNTVYLQMNSLRAEDTAVYYCAAGNEATISWGFGPWEYDYWGQGTMVTVSS
VH 1: EVQLVQSGAEVKKPGSSVKVSCKASGYTFTSYGISWVRQAPGQGLEWMGEIYPRSGNTYYNEKFKGRVTLTADKSTSTAYMELSSLRSEDTAVYYCARGRAYGRNYPMDYWGQGTTVTVSS
VL 1: EIVLTQSPATLSLSPGERATLSCRASQSIGTSIHWYQQKPGQSPRLLIKYASESISGIPARFSGSGSGTDFTLTISSLEPEDFAVYYCQQSNSWPYTFGGGTKVEIK
VH 2: EVQLVESGGGVVQPGRSLRLSCAASGFTFTDYYMSWVRQAPGKGLEWVAMSRNKAKGHTIEYSSSVKGRFTISRDNSKNTLYLQMNSLRAEDTAVYYCARDTYESYDGYFDVWGQGTTVTVSS
VL 2: DIVMTQSPDSLAVSLGERATINCKSSQSLFNSRSRKNYLAWYQQKPGQTPKLLIYWASIRESGVPDRFSGSGSGTDFTLTISSLQAEDVAVYYCKQSYYLYTFGQGTKLEIK
B3: Tri-35 (trispecific antibody, V domains shown)
VHH: EVQLVESGGGLVQPGGSLRLSCSASGFTLDYYMIGWFRQAPGKEREGLSSISPADGSTYYADSVKGRFTISRDSSKNTVYLQMNSLRAEDTAVYYCAAGNEATISWGFGPWEYDYWGQGTMVTVSS
VH 1: EVQLVQSGAEVKKPGSSVKVSCKASGYTFTSYGISWVRQAPGQGLEWMGEIYPRSGNTYYNEKFKGRVTLTADKSTSTAYMELSSLRSEDTAVYYCARGRAYGRNYPMDYWGQGTTVTVSS
VL 1: EIVLTQSPATLSLSPGERATLSCRASQSIGTSIHWYQQKPGQSPRLLIKYASESISGIPARFSGSGSGTDFTLTISSLEPEDFAVYYCQQSNSWPYTFGGGTKVEIK
VH 2: EVQLVESGGGVVQPGRSLRLSCAASGFTFTDYYMSWVRQAPGKGLEWVAMSRNKAKGHTIEYSSSVKGRFTISRDNSKNTLYLQMNSLRAEDTAVYYCARDTYESYDGYFDVWGQGTTVTVSS
VL 2: DIVMTQSPDSLAVSLGERATINCKSSQSLFNSRSRKNYLAWYQQKPGQTPKLLIYWASIRESGVPDRFSGSGSGTDFTLTISSLQAEDVAVYYCKQSYYLYTFGQGTKLEIK
B4: Tri-52 (trispecific antibody, V domains shown)
VHH: EVQLVESGGGLVQPGGSLRLSCAASESISSIHIMAWYRQAPGKQRELVAGIRNDGSTVYVDSVKGRFTISRDNAKNSLYLQMNSLRAEDTAVYYCNADQGFGSYSEWERRSRWGQGTTVTVSS
VH 1: EVQLVQSGAEVKKPGSSVKVSCKASGYTFTSYGISWVRQAPGQGLEWMGEIYPRSGNTYYNEKFKGRVTLTADKSTSTAYMELSSLRSEDTAVYYCARGRAYGRNYPMDYWGQGTTVTVSS
VL 1: EIVLTQSPATLSLSPGERATLSCRASQSIGTSIHWYQQKPGQSPRLLIKYASESISGIPARFSGSGSGTDFTLTISSLEPEDFAVYYCQQSNSWPYTFGGGTKVEIK
VH 2: EVQLVESGGGVVQPGRSLRLSCAASGFTFTDYYMSWVRQAPGKGLEWVAMSRNKAKGHTIEYSSSVKGRFTISRDNSKNTLYLQMNSLRAEDTAVYYCARDTYESYDGYFDVWGQGTTVTVSS
VL 2: DIVMTQSPDSLAVSLGERATINCKSSQSLFNSRSRKNYLAWYQQKPGQTPKLLIYWASIRESGVPDRFSGSGSGTDFTLTISSLQAEDVAVYYCKQSYYLYTFGQGTKLEIK
B5: Tri-46 (trispecific antibody, V domains shown)
VHH: EVQLVESGGGLVQPGGSLRLSCAASESISSIHIMAWYRQAPGKQRELVAGIRNDGSTVYVDSVKGRFTISRDNAKNSLYLQMNSLRAEDTAVYYCNADQGFGSYSEWERRSRWGQGTTVTVSS
VH 1: EVQLVQSGAEVKKPGSSVKVSCKASGYTFTSYGISWVRQAPGQGLEWMGEIYPRSGNTYYNEKFKGRVTLTADKSTSTAYMELSSLRSEDTAVYYCARGRAYGRNYPMDYWGQGTTVTVSS
VL 1: EIVLTQSPATLSLSPGERATLSCRASQSIGTSIHWYQQKPGQSPRLLIKYASESISGIPARFSGSGSGTDFTLTISSLEPEDFAVYYCQQSNSWPYTFGGGTKVEIK
VH 2: EVQLVESGGGVVQPGRSLRLSCAASGFTFTDYYMSWVRQAPGKGLEWVAMSRNKAKGHTIEYSSSVKGRFTISRDNSKNTLYLQMNSLRAEDTAVYYCARDTYESYDGYFDVWGQGTTVTVSS
VL 2: DIVMTQSPDSLAVSLGERATINCKSSQSLFNSRSRKNYLAWYQQKPGQTPKLLIYWASIRESGVPDRFSGSGSGTDFTLTISSLQAEDVAVYYCKQSYYLYTFGQGTKLEIK
B6: REGN5459 (bispecific antibody, human IgG4 S228P, kappa)
heavy 1: EVQLVESGGGLVQPGGSLRLSCAASGFTFSNFWMTWVRQAPGKGLEWVANMNQDGSEKYYVDSVKGRFTISRDNAKSSLYLQMNSLRAEDTAVYYCARDREYCISTSCYDDFDYWGQGTLVTVSSASTKGPSVFPLAPCSRSTSESTAALGCLVKDYFPEPVTVSWNSGALTSGVHTFPAVLQSSGLYSLSSVVTVPSSSLGTKTYTCNVDHKPSNTKVDKRVESKYGPPCPPCPAPPVAGPSVFLFPPKPKDTLMISRTPEVTCVVVDVSQEDPEVQFNWYVDGVEVHNAKTKPREEQFNSTYRVVSVLTVLHQDWLNGKEYKCKVSNKGLPSSIEKTISKAKGQPREPQVYTLPPSQEEMTKNQVSLTCLVKGFYPSDIAVEWESNGQPENNYKTTPPVLDSDGSFFLYSRLTVDKSRWQEGNVFSCSVMHEALHNHYTQKSLSLSLGK
heavy 2: EVQLVESGGGLVQPGRSLRLSCAASGFTFDDYSMHWVRQAPGKGLEWVSGISWNSGSIGYADSVKGRFTISRDNAKNSLYLQMNSLRAEDTALYYCAKYGSGYGKFYYYGMDVWGQGTTVTVSSASTKGPSVFPLAPCSRSTSESTAALGCLVKDYFPEPVTVSWNSGALTSGVHTFPAVLQSSGLYSLSSVVTVPSSSLGTKTYTCNVDHKPSNTKVDKRVESKYGPPCPPCPAPPVAGPSVFLFPPKPKDTLMISRTPEVTCVVVDVSQEDPEVQFNWYVDGVEVHNAKTKPREEQFNSTYRVVSVLTVLHQDWLNGKEYKCKVSNKGLPSSIEKTISKAKGQPREPQVYTLPPSQEEMTKNQVSLTCLVKGFYPSDIAVEWESNGQPENNYKTTPPVLDSDGSFFLYSRLTVDKSRWQEGNVFSCSVMHEALHNRFTQKSLSLSLGK
light: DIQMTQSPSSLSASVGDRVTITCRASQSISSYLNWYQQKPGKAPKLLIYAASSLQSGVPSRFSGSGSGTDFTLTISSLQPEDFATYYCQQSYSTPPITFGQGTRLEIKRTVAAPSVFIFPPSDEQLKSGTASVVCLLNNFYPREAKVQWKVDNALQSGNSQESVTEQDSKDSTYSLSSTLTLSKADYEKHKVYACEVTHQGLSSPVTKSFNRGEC
notes: Positive control, BCMA x CD3 bispecific of Regeneron (WO 2020018820 A1), made in Expi293F; Fc with mutations that prevent homodimerization; also called RGEN5459
B7: JNJ7564 (bispecific antibody, human IgG4 S228P, kappa, lambda, F234A L235A)
heavy 1: not shown
light 1: DIQMTQSPSSLSASVGDRVTITCKASQNVATHVGWYQQKPGKAPKRLIYSASYRYSGVPSRFSGSGSGTEFTLTISNLQPEDFATYYCQQYNRYPYTFGQGTKLEIKRTVAAPSVFIFPPSDEQLKSGTASVVCLLNNFYPREAKVQWKVDNALQSGNSQESVTEQDSKDSTYSLSSTLTLSKADYEKHKVYACEVTHQGLSSPVTKSFNRGEC
heavy 2: EVQLVESGGGLVQPGGSLRLSCAASGFTFNTYAMNWVRQAPGKGLEWVARIRSKYNNYATYYAASVKGRFTISRDDSKNSLYLQMNSLKTEDTAVYYCARHGNFGNSYVSWFAYWGQGTLVTVSSASTKGPSVFPLAPCSRSTSESTAALGCLVKDYFPEPVTVSWNSGALTSGVHTFPAVLQSSGLYSLSSVVTVPSSSLGTKTYTCNVDHKPSNTKVDKRVESKYGPPCPPCPAPEAAGGPSVFLFPPKPKDTLMISRTPEVTCVVVDVSQEDPEVQFNWYVDGVEVHNAKTKPREEQFNSTYRVVSVLTVLHQDWLNGKEYKCKVSNKGLPSSIEKTISKAKGQPREPQVYTLPPSQEEMTKNQVSLTCLVKGFYPSDIAVEWESNGQPENNYKTTPPVLDSDGSFLLYSKLTVDKSRWQEGNVFSCSVMHEALHNHYTQKSLSLSLGK
light 2: QTVVTQEPSLTVSPGGTVTLTCRSSTGAVTTSNYANWVQQKPGQAPRGLIGGTNKRAPGTPARFSGSLLGGKAALTLSGVQPEDEAEYYCALWYSNLWVFGGGTKLTVLGQPKAAPSVTLFPPSSEELQANKATLVCLISDFYPGAVTVAWKADSSPVKAGVETTTPSKQSNNKYAASSYLSLTPEQWKSHRSYSCQVTHEGSTVEKTVAPTECS
notes: Positive control, GPRC5D x CD3 bispecific of Johnson & Johnson (WO 2019220368 A1), made by reduction and reoxidation of the two parental antibodies
B8: antiFITC×CD3-Hab01 (bispecific antibody, human IgG4 S228P, kappa, F234A L235A)
heavy: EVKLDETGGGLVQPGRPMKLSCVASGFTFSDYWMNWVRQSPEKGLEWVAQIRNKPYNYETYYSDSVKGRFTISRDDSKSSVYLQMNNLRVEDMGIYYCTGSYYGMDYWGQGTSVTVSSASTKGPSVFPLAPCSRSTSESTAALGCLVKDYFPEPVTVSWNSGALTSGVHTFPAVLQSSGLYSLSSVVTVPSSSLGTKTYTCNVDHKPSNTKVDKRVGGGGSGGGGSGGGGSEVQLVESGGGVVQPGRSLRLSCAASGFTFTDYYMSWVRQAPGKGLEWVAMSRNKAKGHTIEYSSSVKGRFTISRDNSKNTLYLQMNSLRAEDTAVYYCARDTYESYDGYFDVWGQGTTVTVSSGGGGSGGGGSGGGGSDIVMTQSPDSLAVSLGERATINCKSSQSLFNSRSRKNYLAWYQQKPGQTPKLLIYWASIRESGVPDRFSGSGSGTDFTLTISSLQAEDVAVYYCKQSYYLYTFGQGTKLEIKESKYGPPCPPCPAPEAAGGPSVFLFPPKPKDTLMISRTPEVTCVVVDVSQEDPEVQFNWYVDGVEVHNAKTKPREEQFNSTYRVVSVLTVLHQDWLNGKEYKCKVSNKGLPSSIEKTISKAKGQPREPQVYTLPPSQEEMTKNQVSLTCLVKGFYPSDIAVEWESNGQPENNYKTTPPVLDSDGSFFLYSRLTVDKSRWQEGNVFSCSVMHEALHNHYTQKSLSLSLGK
light: DVVMTQTPLSLPVSLGDQASISCRSSQSLVHSNGNTYLRWYLQKPGQSPKVLIYKVSNRFSGVPDRFSGSGSGTDFTLKISRVEAEDLGVYFCSQSTHVPWTFGGGTKLEIKRTVAAPSVFIFPPSDEQLKSGTASVVCLLNNFYPREAKVQWKVDNALQSGNSQESVTEQDSKDSTYSLSSTLTLSKADYEKHKVYACEVTHQGLSSPVTKSFNRGEC
notes: Negative control for the tumor antigens, prepared internally; carries the CD3-Hab01 arm

Columns and labels:
[1] = biological target: T1, human BCMA on Flp-inCHO-human BCMA cells; experiment: FACS, Flp-inCHO-human BCMA cells
[2] = biological target: T2, human GPRC5D on CHOK1-human GPRC5D cells (human, UniProt Q9NZD1 1-345); experiment: FACS, CHOK1-human GPRC5D cells
T2 construct: whole, on cells
T2 sequence (Q9NZD1 whole entry): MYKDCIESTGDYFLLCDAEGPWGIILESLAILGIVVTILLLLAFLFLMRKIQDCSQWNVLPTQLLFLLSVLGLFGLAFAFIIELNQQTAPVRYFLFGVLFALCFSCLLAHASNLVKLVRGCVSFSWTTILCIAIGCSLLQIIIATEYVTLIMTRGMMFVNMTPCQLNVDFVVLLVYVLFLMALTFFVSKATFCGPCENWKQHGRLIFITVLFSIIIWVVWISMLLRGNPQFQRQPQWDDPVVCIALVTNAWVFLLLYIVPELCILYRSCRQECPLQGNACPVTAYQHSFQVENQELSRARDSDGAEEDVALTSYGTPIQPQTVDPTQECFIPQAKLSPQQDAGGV

[3] = biological target: T3, monkey CD3 on activated monkey PBMC (monkey); experiment: FACS, activated monkey PBMC
T3 construct: whole, on cells
T3 sequence (Q95LI5 22-198): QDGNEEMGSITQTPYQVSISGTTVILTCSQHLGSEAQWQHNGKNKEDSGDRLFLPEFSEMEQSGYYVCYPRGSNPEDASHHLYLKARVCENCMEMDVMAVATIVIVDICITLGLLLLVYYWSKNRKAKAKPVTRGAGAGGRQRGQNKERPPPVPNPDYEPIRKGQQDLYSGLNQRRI

[4] = biological target: T4, human CD3 on Jurkat cells and on activated human PBMC (human, UniProt P07766 23-207; P04234 22-171); experiment: FACS, Jurkat cells
T4 construct: whole, on cells; Endogenous CD3 of the T cell receptor complex on cells
T4 sequence (P07766 23-207, chain 1 of 2): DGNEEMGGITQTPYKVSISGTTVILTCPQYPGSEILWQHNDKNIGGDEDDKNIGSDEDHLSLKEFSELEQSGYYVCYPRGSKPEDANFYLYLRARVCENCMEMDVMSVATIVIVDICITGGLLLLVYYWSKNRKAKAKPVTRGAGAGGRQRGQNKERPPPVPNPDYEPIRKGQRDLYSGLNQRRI
T4 sequence (P04234 22-171, chain 2 of 2): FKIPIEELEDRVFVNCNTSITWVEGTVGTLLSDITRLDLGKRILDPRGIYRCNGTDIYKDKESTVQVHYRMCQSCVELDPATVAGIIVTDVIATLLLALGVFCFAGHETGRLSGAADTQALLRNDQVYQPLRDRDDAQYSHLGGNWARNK

[5] = biological target: T4, human CD3 on Jurkat cells and on …; experiment: FACS, activated human PBMC

Binder	EC50 [1]	EC50 [2]	EC50 [3]	Maximum mean fluorescence intensity [3]	Maximum mean fluorescence intensity [4]	EC50 [5]	Maximum mean fluorescence intensity [5]	binding result [2]	EC50 [4]	binding result [1]
B1	1.21 nM	0.59 nM	249 nM	5280	1800	92.1 nM	3510			
B2	2.27 nM	1.39 nM		5630	418	161 nM	6730			
B3	2.53 nM	1.78 nM		1970	320	81.4 nM	2240			
B4	1.88 nM	2.97 nM		693						
B5	5.19 nM	2.36 nM		416						
B6			161 nM			223 nM and 221 nM		no binding (tested: 100 nM highest concentration)	74.7 nM and 49.7 nM and 66.8 nM and 101 nM	
B7			5.79 nM and 5.72 nM			5.21 nM and 7.36 nM				no binding (tested: 100 nM highest concentration)
B8			15.2 nM and 12.4 nM					no binding (tested: 100 nM highest concentration)		no binding (tested: 100 nM highest concentration)
